These results are taken from the RNAGym collection of RNA variant scans (doi:10.1073/pnas.2313332121).

B1: TPR t1 (parent)
chain: GACCAAUCUGCCCUCAGAGCUCGAGAACAUCUUCGGAUGCAGAGGAGGCAGGCUUCGGUGGCGCGAUAGCGCCAACGUCCUCAACCUCCAAUGCAUCCCACCACAUGAUGAUGCCUGAAGAGCCUUGGUUUUUUG

The variants in the data set derive from B1. In words: polymerase ribozyme fitness, log enrichment relative to wild type (log ratio); higher = more active; in vitro selection for triplet polymerase activity. The essentials:
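Streptavidin-bead capture of gel-excised extended constructs, followed by RT-PCR, closed a single triplicate in vitro selection round. That round began by annealing PCR-built, transcribed mutant libraries of each subunit of a heterodimeric triplet polymerase ribozyme with a biotinylated primer, the partner subunit and triplets, then incubating them frozen at −7 °C. After Illumina sequencing of inputs and outputs, genotypes needed ≥10 input reads and ≥1 read per output. Fitness is the base-2 logarithm of genotype enrichment over wild-type enrichment, using inverse-variance-weighted replicate averages.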
On to GACCAAUCUGACCUCAGAGCUCGAGAACAUCUUCGGAUGCAGAGGAGGCAGGUUUCGGUGGCGCGAUAGCGCCAACGUCCUCAACCUCCAAUGCAUCCCACCACAUGAUGAUGCCUGAAGAGCCUUGGUUUUUUG [C11A C53U], for which the “polymerase ribozyme fitness (log ratio)” value was -1.77.
The result for GACCAAUCUGACCUCAGAGCUCGAGAACAUCUUCGGAUGCAGAGGAGGCAGGGUUCGGUGGCGCGAUAGCGCCAACGUCCUCAACCUCCAAUGCAUCCCACCACAUGAUGAUGCCUGAAGAGCCUUGGUUUUUUG [C11A C53G] reads -1.8; that for GACCAAUCUGACCUCAGAGCUCGAGAACAUCUUCGGAUGAAGAGGAGGCAGGCUUCGGUGGCGCGAUAGCGCCGACGUCCUCAACCUCCAAUGCAUCCCACCACAUGAUGAUGCCUGAAGAGCCUUGGUUUUUUU [C11A C40A A74G G135U], -2.09; that for GACCAAUCUGACCUCAGAGCUCGAGAACAUCUUCGGAUGCAGAGGAGGGAGGCUUCGGUGGCGUGAUAGCGCCAACGUCCUCAACCUCCAAUGCAUCCCACCACAUGAUGAUGCCUGAAGUGCCUUGGUUUUUUG [C11A C49G C64U A121U], 0.957.
The result for GACCAAUCUGACCUCAGAGCUCGAGAACAUCUUCGGAUGCAGAGGAGGUAGGCUUCGGUGGCGCGAUAGCGCCAACGUCCUCAACCUCCAAUGCAUCCCACAACAUGAUGAUGCCUGAAGAGCCUUGGUUUUUUG [C11A C49U C102A] reads -3.16.
Turning to GACCAAUCUGACCUCAGAGCUCGAGAACAUCUUCGGAUGCAGAGGAGGCAGGUUUAGGUGGCGCGAUAGCGCCAAGGUCCUCAACCUCCAAUGCAUCCCACCACAUGAUGAUGCCUGAAGAGCCUUGGUUUUUUG [C11A C53U C56A C76G], the “polymerase ribozyme fitness (log ratio)” value is -3.44.
Turning to GACCAAUCUGACCUCAGAGCUCGAGAACAUCUUAGGAUGCAGAGGAGGCAGGCUUCGGUGGCGCGAUAGCGCCAACGUCCUCAACCUGCAAUGCAUCCCACCACACGAUGAUGCCUGAAGAGCCUUGGUUUUUUG [C11A C34A C88G U106C], the “polymerase ribozyme fitness (log ratio)” value was -5.02.
The result for GACCAAUCUGACCUCAGAGCUCGAGAACAUCUUCGGAUGCAGAGGAGGUAGGCUUCGGUGGCGCGAUAGCGCCAACGUCCUCAAACUCCAAUGCAUCCCACCACAAGAUGAUGCCUGAAGAGCCUUGGUUUUUUG [C11A C49U C85A U106A] reads -3.44; that for GACCAAUCUGACCUCAGAGCUCGAGAACAUCUUCGGAUGCAGAGGAGGGAGGCUUCGGUAGCGCGAUAGCGCCAUCGUCCUCAACCUCCAAUUCAUCCCACCACAUGAUGAUGCCUGAAGAGCCUUGGUUUUUUG [C11A C49G G60A A75U G93U], -3.77.
For the variant GACCAAUCUGACCUCAGAGCUCGAGAACAUCUUCGGAUGCAGAGGAGGGAGGCUUCGGUGGCGCGAUAGCGCCAACGUCCUCAACCUCCAAUGCAUCCCACCACAUGAUGAUGCCUGAAGAGCCUUGGUUUUUUG [C11A C49G], the “polymerase ribozyme fitness (log ratio)” value was -1.67.
With GACCAAUCUGACCUCAGAGCUCGAGAACAUCUUCGGAUGCAGAGGAGGCAGGUUUCGGUGGCGCGAUAGCGCCAACGUCCUCAACCUCCAAUGCAUCCCACCACAUGAUGAUGCCUGAAGAGCCUUGGAUUUUUG [C11A C53U U129A] the figure was -2.66.
With GACCAAUCUGACCUCAGAGCUCGAGAACAUCUUCGGAUGCAGAGGAGGCAGGCUUAGGUGGCGCGGUAGCGCCAACGUCCUCAAACUCCAAUGCAUCCCACCACAUGAUGAAGCCUGAAGAGCCUUGGUUUUUUG [C11A C56A A66G C85A U112A], the “polymerase ribozyme fitness (log ratio)” value is -4.09.
The result for GACCAAUCUGACCUCAGAGCUCGAGAACAUCUUCGGAUGCAGAGGAGGCAGGUUUCGGUGGCGCGAUAGCGCCAAUGUCGUCAACCUCCAAUGCAUCCCACCACAUGAUGAUGCCUCAAGAGCCUUGGUUUUUUG [C11A C53U C76U C80G G117C] reads -7.25.
With GACCAAUCUGACCUCAGAGCUCGAGAACAUCUUCGGAUGCAGAGGAGGGAGGCUUCGGUAGCGCGAUAGCGCCAACGUCCUCAACCUCCAAUUCAUCCCACCACAUGAUGAUGCCUGAAGAGCCUUGGUUUUUUG [C11A C49G G60A G93U] the figure was -2.13; with GACCAAUCUGACCUCAGAGCUCGAGAACAUCUUCGGAUGUAGAGAAGGCAGGCUUCGGUGGCGCGAUAGAGCCAACGUCCUCAACCUCCAAUGCAUCCCACCACAUGAUGAUGCCUGAACAGCCUUGGUUUUUUG [C11A C40U G45A C70A G120C], -1.21; with GACCAAUCUGACCUCAGAGCUCGAGAACAUCUUCGGAUGAAGAGGAGGCAGACUUCGGUGGCGCGAUAGCGCCAACGUCCUCAACCUCCAAAGCAUCCCACCACAUGAUGAUGCCUGAAGAGCCUUGGUUUUUUG [C11A C40A G52A U92A], -3.14.
With GACCAAUCUGACCUCAGAGCUCGAGAACAUCUUCGGAUGCAGAGGAGGUAGGCUUCGGUGGCGCGAUAGCGCCAACGUCCUCAACCUCCAAUACAUCCCACCACAUGAUGAUGCCUGAAGAGCCUUGGAUUUUUG [C11A C49U G93A U129A], the “polymerase ribozyme fitness (log ratio)” value was -3.29.
The result for GACCAAUCUGACCUCAGAGCUCGAGAACAUCUUCGGAUGUAGAGGAGGCAGGCUUCGGUGGCGCGAUAGCGCCAACGUCCUCAACCUCCAAUGCAUCCCACCACAUGAUGAUGCCUGAAGAGCCUUGGUUUUUUG [C11A C40U] reads -2.35.
In the case of GACCAAUCUGACCUCAGAGCUCGAGAACAUCUUCGGAUGCAGAGGAGGUAGGCUUCGGUGGCGCGAUAGCGCCAACGUCCUCAACCUCCAAUGGAUCCCACCACAUGAUGAUGCCUGAAGAGCCUUGGUUUUUUG [C11A C49U C94G], the “polymerase ribozyme fitness (log ratio)” value is -2.46.
GACCAAUCUGACCUCAGAGCUCGAGAACAUCUUCGGAUGCAGAGGAGGAAGGCUUCGGAGGCGCGAUGGCGCCAACGUCCUCAACCUCCAGUGCAUCCCACCACAUGAUGAUGCCUGAAGAGCCUUGGUUUUUUG [C11A C49A U59A A68G A91G]: the “polymerase ribozyme fitness (log ratio)” value is -6.83.
Turning to GACCAAUCUGACCUCAGAGCUCGAGAACAUCUUCGGAUGCAGAGGAGGCAGGGUUCGGUGGCGCGAUAUCGUCAACGUCCUCAACCUCCAAUGCAUCCCACCACAUGAUGAUGCCUGAAGAGCCUUGGUUUUUUG [C11A C53G G69U C72U], the “polymerase ribozyme fitness (log ratio)” value was -1.37.
